For 2 molecules, intracellular accumulation of IP1 in hOX2R/CHO-EA cells, EC50, intracellular phosphorylation of CREB (Ser133) in hOX2R/CHO-EA cells, EC50 and β-arrestin recruitment in hOX2R/CHO-EA cells (PathHunter), EC50 results are on record in PMC11379823.

This test has as its target T1, human orexin receptor 2 (human) (UniProt O43614).
T1 sequence: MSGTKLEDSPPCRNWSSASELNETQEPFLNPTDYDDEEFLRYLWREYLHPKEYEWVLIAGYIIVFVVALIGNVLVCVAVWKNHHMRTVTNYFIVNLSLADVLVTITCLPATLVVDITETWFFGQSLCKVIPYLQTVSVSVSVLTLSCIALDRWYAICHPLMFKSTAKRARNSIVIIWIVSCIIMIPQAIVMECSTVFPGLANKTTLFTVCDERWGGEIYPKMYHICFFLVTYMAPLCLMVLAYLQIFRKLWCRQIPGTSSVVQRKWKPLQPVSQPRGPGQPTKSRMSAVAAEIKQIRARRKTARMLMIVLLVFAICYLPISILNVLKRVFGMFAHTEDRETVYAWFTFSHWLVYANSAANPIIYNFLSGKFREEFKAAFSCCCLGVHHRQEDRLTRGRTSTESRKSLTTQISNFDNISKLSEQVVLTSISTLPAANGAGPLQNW

Take “orexin-B (from UniProt O43612 70-97) (peptide)”: the intracellular accumulation of IP1 in hOX2R/CHO-EA cells, EC50 came to 3.2 nM; the intracellular phosphorylation of CREB (Ser133) in hOX2R/CHO-EA cells, EC50 was determined as 4.7 nM; the β-arrestin recruitment in hOX2R/CHO-EA cells (PathHunter), EC50 worked out at 4 nM.
Consider QPLPDCCRQKTCSCRLYELLHGAGNHAAGILTL [orexin-A], for which the intracellular accumulation of IP1 in hOX2R/CHO-EA cells, EC50 stood at 0.84 nM; the intracellular phosphorylation of CREB (Ser133) in hOX2R/CHO-EA cells, EC50 is 1.8 nM; the β-arrestin recruitment in hOX2R/CHO-EA cells (PathHunter), EC50 was 3 nM.
